B1: Zinc finger protein Aiolos (Homo sapiens), Q9UKT9 (parent)
chain: MEDIQTNAELKSTQEQSVPAESAAVLNDYSLTKSHEMENVDSGEGPANEDEDIGDDSMKVKDEYSERDENVLKSEPMGNAEEPEIPYSYSREYNEYENIKLERHVVSFDSSRPTSGKMNCDVCGLSCISFNVLMVHKRSHTGERPFQCNQCGASFTQKGNLLRHIKLHTGEKPFKCHLCNYACQRRDALTGHLRTHSVEKPYKCEFCGRSYKQRSSLEEHKERCRTFLQSTDPGDTASAEARHIKAEMGSERALVLDRLASNVAKRKSSMPQKFIGEKRHCFDVNYNSSYMYEKESELIQTRMMDQAINNAISYLGAEALRPLVQTPPAPTSEMVPVISSMYPIALTRAEMSNGAPQELEKKSIHLPEKSVPSERGLSPNNSGHDSTDTDSNHEERQNHIYQQNHMVLSRARNGMPLLKEVPRSYELLKPPPICPRDSVKVINKEGEVMDVYRCDHCRVLFLDYVMFTIHMGCHGFRDPFECNMCGYRSHDRYEFSSHIARGEHRALLK
partner: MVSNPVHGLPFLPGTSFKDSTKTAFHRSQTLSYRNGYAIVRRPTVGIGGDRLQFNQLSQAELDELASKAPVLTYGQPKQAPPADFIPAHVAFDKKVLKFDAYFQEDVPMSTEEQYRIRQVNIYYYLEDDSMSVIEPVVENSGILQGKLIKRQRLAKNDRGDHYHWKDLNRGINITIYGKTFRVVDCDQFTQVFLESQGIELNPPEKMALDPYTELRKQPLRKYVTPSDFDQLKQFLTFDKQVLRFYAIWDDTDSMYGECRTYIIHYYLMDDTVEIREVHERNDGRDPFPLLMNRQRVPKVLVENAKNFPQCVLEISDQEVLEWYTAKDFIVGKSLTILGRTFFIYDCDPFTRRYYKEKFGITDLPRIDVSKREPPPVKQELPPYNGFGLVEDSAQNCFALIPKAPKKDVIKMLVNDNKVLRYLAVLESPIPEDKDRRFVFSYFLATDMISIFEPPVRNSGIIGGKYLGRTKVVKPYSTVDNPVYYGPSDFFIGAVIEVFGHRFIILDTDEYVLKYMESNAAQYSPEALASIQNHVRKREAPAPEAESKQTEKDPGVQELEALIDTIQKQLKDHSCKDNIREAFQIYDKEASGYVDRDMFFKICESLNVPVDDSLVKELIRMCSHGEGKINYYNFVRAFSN
B2: Homeobox protein VENTX (Homo sapiens), O95231 (parent)
chain: MRLSSSPPRGPQQLSSFGSVDWLSQSSCSGPTHTPRPADFSLGSLPGPGQTSGAREPPQAVSIKEAAGSSNLPAPERTMAGLSKEPNTLRAPRVRTAFTMEQVRTLEGVFQHHQYLSPLERKRLAREMQLSEVQIKTWFQNRRMKHKRQMQDPQLHSPFSGSLHAPPAFYSTSSGLANGLQLLCPWAPLSGPQALMLPPGSFWGLCQVAQEALASAGASCCGQPLASHPPTPGRPSLGPALSTGPRGLCAMPQTGDAF
partner: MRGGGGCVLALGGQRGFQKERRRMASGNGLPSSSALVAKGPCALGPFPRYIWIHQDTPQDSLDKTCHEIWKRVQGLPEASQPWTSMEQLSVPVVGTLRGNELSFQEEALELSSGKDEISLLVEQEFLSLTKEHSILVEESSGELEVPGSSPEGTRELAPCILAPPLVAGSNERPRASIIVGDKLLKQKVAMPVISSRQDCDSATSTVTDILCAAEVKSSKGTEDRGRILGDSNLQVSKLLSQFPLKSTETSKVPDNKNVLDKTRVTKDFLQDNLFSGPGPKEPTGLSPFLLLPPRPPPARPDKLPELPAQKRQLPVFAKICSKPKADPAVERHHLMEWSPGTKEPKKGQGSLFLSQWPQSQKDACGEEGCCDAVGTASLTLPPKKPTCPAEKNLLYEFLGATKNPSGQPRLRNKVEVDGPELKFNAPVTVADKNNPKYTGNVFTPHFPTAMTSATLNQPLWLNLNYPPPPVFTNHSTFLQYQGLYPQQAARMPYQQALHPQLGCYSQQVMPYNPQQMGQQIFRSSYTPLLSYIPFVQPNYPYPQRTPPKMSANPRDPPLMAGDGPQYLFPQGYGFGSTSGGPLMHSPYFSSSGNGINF
B3: Protein LDOC1 (Homo sapiens), O95751 (parent)
chain: MVDELVLLLHALLMRHRALSIENSQLMEQLRLLVCERASLLRQVRPPSCPVPFPETFNGESSRLPEFIVQTASYMLVNENRFCNDAMKVAFLISLLTGEAEEWVVPYIEMDSPILGDYRAFLDEMKQCFGWDDDEDDDDEEEEDDY
partner: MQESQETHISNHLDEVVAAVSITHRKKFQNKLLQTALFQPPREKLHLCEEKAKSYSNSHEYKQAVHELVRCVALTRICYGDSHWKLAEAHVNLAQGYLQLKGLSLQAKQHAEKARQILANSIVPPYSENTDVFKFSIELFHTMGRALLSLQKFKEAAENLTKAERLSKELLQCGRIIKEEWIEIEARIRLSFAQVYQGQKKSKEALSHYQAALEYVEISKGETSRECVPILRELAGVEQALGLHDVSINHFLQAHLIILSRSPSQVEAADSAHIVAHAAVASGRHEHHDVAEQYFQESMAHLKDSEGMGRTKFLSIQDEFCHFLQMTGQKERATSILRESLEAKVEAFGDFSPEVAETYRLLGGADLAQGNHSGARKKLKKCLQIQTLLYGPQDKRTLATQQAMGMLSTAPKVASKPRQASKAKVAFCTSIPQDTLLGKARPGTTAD
B4: Beta-taxilin (Homo sapiens), Q8N3L3 (parent)
chain: MEANHSEQLSAERQSTPPGDSSSLPSHNGLEKEDGQDSPTPVQPPEKEASVHPDISEELNRQLEDIINTYGSAASTAGKEGSARASEQPENAESPDNEDGDCEETTEEAGREPVASGEPPTVKEPVSNKEQKLEKKILKGLGKEANLLMQNLNKLQTPEEKFDFLFKKYAELLDEHRTEQKKLKLLQKKQVQIQKEKDQLQGEHSRAILARSKLESLCRELQRHNKTLKEEALQRAREEEEKRKEITSHFQSTLTDIQGQIEQQSERNMKLCQENTELAEKLKSIIDQYELREEHLDKIFKHRELQQKLVDAKLEQAQEMMKEAEERHKREKEYLLNQAAEWKLQAKVLKEQETVLQAQLTLYSGRFEEFQSTLTKSNEVFATFKQEMDKTTKKMKKLEKDTATWKARFENCNKALLDMIEEKALRAKEYECFVMKIGRLENLCRALQEERNELHKKIRDAEISEKDDQSQHNSDEEPESNVSVDQEIDAEEVNSVQTAVKNLATAFMIIHHPESTPHQSKETQPEIGSSQESADAALKEPEQPPLIPSRDSESPLPPLTPQAEAEGGSDAEPPSKASNSPAGLGAETQCEGLPVGAQADQASWKPEAEASGQAPQAPTEASLQKMEADVPAPACAAEEHVAAMVPACEPSRQPPRAAAEELPVGASAGPQPRNVADTNLEGVD
partner: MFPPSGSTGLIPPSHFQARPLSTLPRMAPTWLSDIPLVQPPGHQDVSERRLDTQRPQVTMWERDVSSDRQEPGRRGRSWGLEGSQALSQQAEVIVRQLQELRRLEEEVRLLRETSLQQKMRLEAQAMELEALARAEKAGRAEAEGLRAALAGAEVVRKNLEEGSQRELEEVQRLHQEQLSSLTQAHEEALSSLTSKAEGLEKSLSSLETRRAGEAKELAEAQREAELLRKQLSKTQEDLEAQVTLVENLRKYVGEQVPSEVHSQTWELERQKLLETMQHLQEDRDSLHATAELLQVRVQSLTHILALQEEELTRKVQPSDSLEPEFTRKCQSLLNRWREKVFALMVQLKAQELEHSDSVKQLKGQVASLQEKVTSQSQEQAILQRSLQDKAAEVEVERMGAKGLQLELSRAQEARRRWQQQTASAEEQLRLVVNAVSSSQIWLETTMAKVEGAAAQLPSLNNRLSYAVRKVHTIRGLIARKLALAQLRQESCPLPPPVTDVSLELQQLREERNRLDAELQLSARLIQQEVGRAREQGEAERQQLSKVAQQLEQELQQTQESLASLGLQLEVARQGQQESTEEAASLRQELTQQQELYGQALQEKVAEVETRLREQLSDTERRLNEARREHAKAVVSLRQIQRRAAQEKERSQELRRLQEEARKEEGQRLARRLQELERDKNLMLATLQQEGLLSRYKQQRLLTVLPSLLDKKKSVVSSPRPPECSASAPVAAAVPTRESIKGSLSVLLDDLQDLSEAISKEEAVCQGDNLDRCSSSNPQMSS
B5: Centrosomal protein of 55 kDa (Homo sapiens), Q53EZ4 (parent)
chain: MSSRSTKDLIKSKWGSKPSNSKSETTLEKLKGEIAHLKTSVDEITSGKGKLTDKERHRLLEKIRVLEAEKEKNAYQLTEKDKEIQRLRDQLKARYSTTTLLEQLEETTREGERREQVLKALSEEKDVLKQQLSAATSRIAELESKTNTLRLSQTVAPNCFNSSINNIHEMEIQLKDALEKNQQWLVYDQQREVYVKGLLAKIFELEKKTETAAHSLPQQTKKPESEGYLQEEKQKCYNDLLASAKKDLEVERQTITQLSFELSEFRRKYEETQKEVHNLNQLLYSQRRADVQHLEDDRHKTEKIQKLREENDIARGKLEEEKKRSEELLSQVQFLYTSLLKQQEEQTRVALLEQQMQACTLDFENEKLDRQHVQHQLHVILKELRKARNQITQLESLKQLHEFAITEPLVTFQGETENREKVAASPKSPTAALNESLVECPKCNIQYPATEHRDLLVHVEYCSK
partner: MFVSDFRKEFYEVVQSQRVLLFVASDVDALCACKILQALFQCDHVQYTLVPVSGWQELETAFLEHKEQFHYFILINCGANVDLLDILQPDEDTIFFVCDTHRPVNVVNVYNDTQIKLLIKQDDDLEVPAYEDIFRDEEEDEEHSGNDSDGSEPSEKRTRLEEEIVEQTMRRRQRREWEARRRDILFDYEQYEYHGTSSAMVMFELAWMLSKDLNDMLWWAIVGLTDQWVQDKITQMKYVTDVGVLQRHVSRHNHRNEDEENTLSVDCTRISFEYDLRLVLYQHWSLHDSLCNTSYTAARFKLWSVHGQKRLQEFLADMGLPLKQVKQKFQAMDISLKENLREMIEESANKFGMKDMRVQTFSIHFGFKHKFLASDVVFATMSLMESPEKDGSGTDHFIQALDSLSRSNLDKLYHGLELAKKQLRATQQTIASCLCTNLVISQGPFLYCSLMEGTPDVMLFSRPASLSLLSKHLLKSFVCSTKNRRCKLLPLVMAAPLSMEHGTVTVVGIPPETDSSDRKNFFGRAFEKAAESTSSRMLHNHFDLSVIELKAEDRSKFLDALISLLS
B6: Kelch-like protein 3 (Homo sapiens), Q9UH77 (parent)
chain: MEGESVKLSSQTLIQAGDDEKNQRTITVNPAHMGKAFKVMNELRSKQLLCDVMIVAEDVEIEAHRVVLAACSPYFCAMFTGDMSESKAKKIEIKDVDGQTLSKLIDYIYTAEIEVTEENVQVLLPAASLLQLMDVRQNCCDFLQSQLHPTNCLGIRAFADVHTCTDLLQQANAYAEQHFPEVMLGEEFLSLSLDQVCSLISSDKLTVSSEEKVFEAVISWINYEKETRLEHMAKLMEHVRLPLLPRDYLVQTVEEEALIKNNNTCKDFLIEAMKYHLLPLDQRLLIKNPRTKPRTPVSLPKVMIVVGGQAPKAIRSVECYDFEEDRWDQIAELPSRRCRAGVVFMAGHVYAVGGFNGSLRVRTVDVYDGVKDQWTSIASMQERRSTLGAAVLNDLLYAVGGFDGSTGLASVEAYSYKTNEWFFVAPMNTRRSSVGVGVVEGKLYAVGGYDGASRQCLSTVEQYNPATNEWIYVADMSTRRSGAGVGVLSGQLYATGGHDGPLVRKSVEVYDPGTNTWKQVADMNMCRRNAGVCAVNGLLYVVGGDDGSCNLASVEYYNPVTDKWTLLPTNMSTGRSYAGVAVIHKSL

Variants of: B1
Conditions: with efhc1_human EFHC1, Q5JVL4

Variant | effect of a mutation on the interaction
N119D | with no effect

Variants of: B2
Conditions: with ca094_human C1orf94, Q6P1W5

Variant | effect of a mutation on the interaction
A226E | with no effect
L42P | with no effect
M251V | with no effect

Variants of: B3
Conditions: with ttc23_human TTC23, Q5W5X9

Variant | effect of a mutation on the interaction
L12H | disrupting interaction strength

Variants of: B4
Conditions: with cchcr_human CCHCR1, Q8TD31

Variant | effect of a mutation on the interaction
I527T | with no effect

Variants of: B5
Conditions: with cdc45_human CDC45, O75419

Variant | effect of a mutation on the interaction
A244P | with no effect
R348K | with no effect
H57Q | with no effect
C236R | with no effect

Variants of: B6
Conditions: with cul3_human CUL3, Q13618

Variant | effect of a mutation on the interaction
R228G | disrupting interaction strength
